Measured values: US20240158510A1 (GOVERNING COUNCIL OF THE UNIVERSITY OF TORONTO, published 2024)
Changes are numbered by the printed parent chain. Read-outs that look alike come from different tables or passages of the source.

What was measured:
[1] = target: T1, integrin αvβ1 expressed on CHO cells (UniProt P06756 31-1048; P05556 21-798, limits assumed); assay: cell-based or functional assay
[2] = target: T2, recombinant mouse integrin-αvβ1 (mouse, UniProt P43406 31-988; P09055 21-728, limits assumed); assay: IgG titration on recombinant mouse integrin αvβ1, one site-total fit; assay format not stated
T2 construct: also called Recombinant Mouse Integrins

[3] = target: T3, integrin αvβ5 expressed on CHO cells (UniProt P06756 31-1048; P18084 24-799, limits assumed); assay: cell-based or functional assay
[4] = target: T4, integrin αvβ8 expressed on CHO cells (UniProt P06756 31-1048; P26012 43-769, limits assumed); assay: cell-based or functional assay
[5] = target: T1, integrin αvβ1 expressed on CHO cells; assay: cell-based or functional assay; remark: listed apart in the source
[6] = target: T5, integrin αvβ3 expressed on CHO cells (UniProt P06756 31-1048; P05106 27-788, limits assumed); assay: cell-based or functional assay
[7] = target: T6, recombinant human integrin-αvβ1 (human, UniProt P06756 31-992; P05556 21-728, limits assumed); assay: IgG titration on recombinant human integrin αvβ1, one site-total fit; assay format not stated; parameters: Bmax: unit not given here
T6 construct: also called Recombinant Human Integrins

[8] = target: T3, integrin αvβ5 expressed on CHO cells; assay: flow cytometry titration on integrin-expressing CHO cells
Procedure: (§1) Adherent cells were brought into suspension using PBS supplemented with 10 mM ethylenediaminetetraacetic acid (EDTA). The cells were washed with PBS, resuspended in PBS supplemented with 1% BSA, and incubated for 15 minutes at 4° C. The cells were labelled with 50 μl of Fab-phage culture supernatant, or 500 nM Fab, or IgG for 30 minutes at 4° C., then washed with PBS and resuspended in PBS supplemented with 1% BSA. Next, the cells were labelled with anti-Fab (for Fab-phage), or anti-Flag (for Fabs) or anti-Fc (for IgGs) conjugated Alexa-488 secondary Ab according to manufacturer's instructions. Data were collected using a CytoFLEX-S flow-cytometer using a 488-nm laser with 530/25 nm filter settings. The cells were analyzed in PBS, and all acquired live events were greater than 10,000 cells per sample. Quantitation analysis was carried out using FlowJo v10.2 Software. For Ab cellular titration analysis, the Abs were added to antigen positive cells in duplicate samples from a range of 500 pM to 1 μM. The mean fluorescence signal values were subtracted from the control antigen negative cells signals, and EC50 determined using Graph-pad Prism, where x is the Fab concentration: […]

[9] = target: T4, integrin αvβ8 expressed on CHO cells; assay: as above
Procedure: as §1

[10] = target: T1, integrin αvβ1 expressed on CHO cells; assay: as above
Procedure: as §1

[11] = target: T7, integrin αvβ6 expressed on CHO cells (UniProt P06756 31-1048; P18564 22-788, limits assumed); assay: as above
T7 construct: whole, on cells
Procedure: as §1

[12] = target: T5, integrin αvβ3 expressed on CHO cells; assay: as above
Procedure: as §1

[13] = target: T7, integrin αvβ6 expressed on CHO cells; assay: flow cytometry titration on AvB6 CHO cells
Procedure: as §1

[14] = target: T5, integrin αvβ3 expressed on CHO cells; assay: flow cytometry titration on AvB3 CHO cells
Procedure: as §1

[15] = target: T1, integrin αvβ1 expressed on CHO cells; assay: flow cytometry titration on AvB1 CHO cells
Procedure: as §1

[16] = target: T1, integrin αvβ1 expressed on CHO cells; assay: flow cytometry titration on integrin-αvβ1 CHO cells (curves in FIG. 12K)
Procedure: as §1

[17] = target: T3, integrin αvβ5 expressed on CHO cells; assay: flow cytometry titration on AvB5 CHO cells
Procedure: as §1

[18] = target: T3, integrin αvβ5 expressed on CHO cells; assay: cell-based or functional assay; remark: listed apart in the source
[19] = target: T4, integrin αvβ8 expressed on CHO cells; assay: cell-based or functional assay; remark: listed apart in the source
[20] = target: T1, integrin αvβ1 expressed on CHO cells; assay: cell-based or functional assay; remark: listed apart in the source
[21] = target: T7, integrin αvβ6 expressed on CHO cells; assay: cell-based or functional assay
[22] = target: T5, integrin αvβ3 expressed on CHO cells; assay: cell-based or functional assay; remark: listed apart in the source
[23] = target: T4, integrin αvβ8 expressed on CHO cells; assay: flow cytometry titration on AvB8 CHO cells
Procedure: as §1

[24] = target: T1, integrin αvβ1 expressed on CHO cells; assay: cell-based or functional assay; remark: listed apart in the source
[25] = target: T1, integrin αvβ1 expressed on CHO cells; assay: cell-based or functional assay; remark: listed apart in the source
[26] = target: T1, integrin αvβ1 expressed on CHO cells; assay: flow cytometry titration on integrin-αvβ1 CHO cells; binder taken from the context of FIG. 10 and Example 2
Procedure: as §1

T3 sequence (P06756 31-1048 limits assumed, chain 1 of 2): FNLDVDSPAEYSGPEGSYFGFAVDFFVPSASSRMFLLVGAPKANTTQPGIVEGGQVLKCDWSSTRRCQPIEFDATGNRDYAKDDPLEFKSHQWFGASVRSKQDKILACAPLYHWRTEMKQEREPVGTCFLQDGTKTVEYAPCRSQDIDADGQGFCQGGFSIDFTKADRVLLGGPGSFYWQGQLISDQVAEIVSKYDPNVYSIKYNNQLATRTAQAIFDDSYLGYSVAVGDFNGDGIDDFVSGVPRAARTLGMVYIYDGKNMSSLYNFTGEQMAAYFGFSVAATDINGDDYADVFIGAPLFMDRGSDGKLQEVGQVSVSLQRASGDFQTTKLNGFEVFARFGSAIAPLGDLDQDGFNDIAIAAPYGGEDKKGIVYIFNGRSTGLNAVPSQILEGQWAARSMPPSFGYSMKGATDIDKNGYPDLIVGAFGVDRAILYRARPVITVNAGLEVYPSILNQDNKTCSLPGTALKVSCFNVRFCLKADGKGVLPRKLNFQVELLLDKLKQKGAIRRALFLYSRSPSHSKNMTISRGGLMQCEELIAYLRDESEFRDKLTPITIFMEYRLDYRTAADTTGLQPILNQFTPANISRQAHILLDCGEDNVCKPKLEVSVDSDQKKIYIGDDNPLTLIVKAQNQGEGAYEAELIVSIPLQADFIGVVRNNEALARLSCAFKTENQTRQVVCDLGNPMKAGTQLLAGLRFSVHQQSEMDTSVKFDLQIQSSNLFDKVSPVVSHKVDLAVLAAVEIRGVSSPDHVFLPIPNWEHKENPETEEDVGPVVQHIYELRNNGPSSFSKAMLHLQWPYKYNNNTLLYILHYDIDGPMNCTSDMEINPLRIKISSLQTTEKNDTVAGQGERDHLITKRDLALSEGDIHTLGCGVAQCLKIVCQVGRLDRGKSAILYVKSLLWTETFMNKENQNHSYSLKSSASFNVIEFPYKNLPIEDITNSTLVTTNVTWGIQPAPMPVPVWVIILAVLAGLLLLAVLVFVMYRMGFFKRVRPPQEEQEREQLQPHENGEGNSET
T3 sequence (P18084 24-799 limits assumed, chain 2 of 2): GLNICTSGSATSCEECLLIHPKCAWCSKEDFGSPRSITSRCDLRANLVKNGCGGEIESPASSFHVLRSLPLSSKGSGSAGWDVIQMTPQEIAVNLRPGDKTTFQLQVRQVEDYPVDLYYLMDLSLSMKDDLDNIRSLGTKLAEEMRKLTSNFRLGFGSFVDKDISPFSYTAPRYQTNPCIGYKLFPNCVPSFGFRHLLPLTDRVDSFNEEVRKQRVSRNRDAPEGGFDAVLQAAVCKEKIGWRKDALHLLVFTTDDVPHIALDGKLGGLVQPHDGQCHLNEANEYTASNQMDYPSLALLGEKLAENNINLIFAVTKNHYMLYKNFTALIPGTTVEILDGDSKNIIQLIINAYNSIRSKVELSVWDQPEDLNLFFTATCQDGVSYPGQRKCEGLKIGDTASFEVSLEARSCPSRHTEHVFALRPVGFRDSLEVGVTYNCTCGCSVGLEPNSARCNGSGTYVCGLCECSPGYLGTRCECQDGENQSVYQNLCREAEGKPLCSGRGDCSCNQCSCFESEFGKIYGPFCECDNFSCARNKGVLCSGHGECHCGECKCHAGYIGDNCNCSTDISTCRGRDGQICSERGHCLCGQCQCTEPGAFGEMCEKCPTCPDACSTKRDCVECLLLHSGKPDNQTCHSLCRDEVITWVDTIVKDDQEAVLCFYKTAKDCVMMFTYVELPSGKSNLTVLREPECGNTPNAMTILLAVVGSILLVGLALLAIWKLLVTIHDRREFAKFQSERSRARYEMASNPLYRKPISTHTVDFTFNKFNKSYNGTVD
T5 sequence (P06756 31-1048 limits assumed, chain 1 of 2): as the sequence (P06756 31-1048 limits assumed, chain 1 of 2) above
T5 sequence (P05106 27-788 limits assumed, chain 2 of 2): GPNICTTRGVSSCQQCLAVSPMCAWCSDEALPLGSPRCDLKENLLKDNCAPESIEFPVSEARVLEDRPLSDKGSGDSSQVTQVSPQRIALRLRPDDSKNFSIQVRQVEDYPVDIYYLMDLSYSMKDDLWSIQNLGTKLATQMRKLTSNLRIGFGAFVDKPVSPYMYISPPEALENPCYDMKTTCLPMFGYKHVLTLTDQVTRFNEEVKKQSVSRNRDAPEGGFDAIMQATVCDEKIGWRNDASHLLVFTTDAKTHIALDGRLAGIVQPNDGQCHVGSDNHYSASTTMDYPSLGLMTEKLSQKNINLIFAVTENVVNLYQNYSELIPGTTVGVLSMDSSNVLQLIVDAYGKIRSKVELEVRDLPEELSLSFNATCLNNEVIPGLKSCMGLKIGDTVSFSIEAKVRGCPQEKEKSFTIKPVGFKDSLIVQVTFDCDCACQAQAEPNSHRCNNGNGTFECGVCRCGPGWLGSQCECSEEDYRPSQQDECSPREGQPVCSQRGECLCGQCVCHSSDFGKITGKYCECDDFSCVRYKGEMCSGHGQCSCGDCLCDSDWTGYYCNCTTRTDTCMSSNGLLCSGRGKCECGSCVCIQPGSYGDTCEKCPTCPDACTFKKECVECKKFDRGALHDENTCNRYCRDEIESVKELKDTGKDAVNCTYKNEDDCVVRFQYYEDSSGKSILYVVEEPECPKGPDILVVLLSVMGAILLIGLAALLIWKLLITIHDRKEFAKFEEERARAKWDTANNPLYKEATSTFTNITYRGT
T1 sequence (P06756 31-1048 limits assumed, chain 1 of 2): as the sequence (P06756 31-1048 limits assumed, chain 1 of 2) above
T1 sequence (P05556 21-798 limits assumed, chain 2 of 2): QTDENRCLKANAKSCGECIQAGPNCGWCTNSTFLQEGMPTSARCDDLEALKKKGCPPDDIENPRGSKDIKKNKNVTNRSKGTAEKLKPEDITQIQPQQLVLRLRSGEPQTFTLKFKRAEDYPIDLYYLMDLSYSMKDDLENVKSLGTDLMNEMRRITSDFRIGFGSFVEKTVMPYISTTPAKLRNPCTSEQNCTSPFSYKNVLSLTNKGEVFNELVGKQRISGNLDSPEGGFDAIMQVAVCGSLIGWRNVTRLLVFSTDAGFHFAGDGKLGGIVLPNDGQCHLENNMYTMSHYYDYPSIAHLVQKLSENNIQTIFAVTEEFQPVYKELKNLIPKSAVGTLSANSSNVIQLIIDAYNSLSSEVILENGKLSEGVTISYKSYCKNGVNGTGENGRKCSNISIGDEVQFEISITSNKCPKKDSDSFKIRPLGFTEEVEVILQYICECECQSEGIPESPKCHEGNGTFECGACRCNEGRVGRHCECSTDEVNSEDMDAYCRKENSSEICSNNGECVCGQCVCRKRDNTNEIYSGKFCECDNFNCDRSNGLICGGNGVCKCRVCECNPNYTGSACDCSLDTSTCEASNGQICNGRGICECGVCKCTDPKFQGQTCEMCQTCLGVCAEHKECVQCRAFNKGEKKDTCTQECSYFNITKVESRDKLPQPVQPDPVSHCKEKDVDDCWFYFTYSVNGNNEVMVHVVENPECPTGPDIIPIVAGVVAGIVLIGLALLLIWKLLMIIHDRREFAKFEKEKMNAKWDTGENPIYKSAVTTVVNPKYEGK
T7 sequence (P06756 31-1048 limits assumed, chain 1 of 2): as the sequence (P06756 31-1048 limits assumed, chain 1 of 2) above
T7 sequence (P18564 22-788 limits assumed, chain 2 of 2): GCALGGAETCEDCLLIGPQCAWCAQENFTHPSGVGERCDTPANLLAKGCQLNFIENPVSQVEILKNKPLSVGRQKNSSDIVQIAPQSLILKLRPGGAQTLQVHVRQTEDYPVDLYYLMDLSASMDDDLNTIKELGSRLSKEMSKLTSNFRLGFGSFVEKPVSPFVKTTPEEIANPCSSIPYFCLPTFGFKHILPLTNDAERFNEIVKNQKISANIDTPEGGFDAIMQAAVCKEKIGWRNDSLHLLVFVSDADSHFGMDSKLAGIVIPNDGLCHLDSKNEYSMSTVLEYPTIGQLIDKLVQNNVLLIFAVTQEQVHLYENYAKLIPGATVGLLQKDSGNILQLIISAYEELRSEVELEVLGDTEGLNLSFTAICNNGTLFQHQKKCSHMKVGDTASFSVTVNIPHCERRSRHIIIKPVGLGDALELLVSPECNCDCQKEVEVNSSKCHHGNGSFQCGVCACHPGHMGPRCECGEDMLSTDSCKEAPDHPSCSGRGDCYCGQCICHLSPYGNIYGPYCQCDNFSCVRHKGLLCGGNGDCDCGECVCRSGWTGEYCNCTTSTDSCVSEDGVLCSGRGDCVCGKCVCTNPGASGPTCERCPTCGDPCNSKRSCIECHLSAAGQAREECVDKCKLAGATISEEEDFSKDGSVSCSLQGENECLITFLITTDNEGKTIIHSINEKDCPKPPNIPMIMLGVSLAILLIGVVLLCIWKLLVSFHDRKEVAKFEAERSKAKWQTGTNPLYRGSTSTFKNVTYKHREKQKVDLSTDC
T4 sequence (P06756 31-1048 limits assumed, chain 1 of 2): as the sequence (P06756 31-1048 limits assumed, chain 1 of 2) above
T4 sequence (P26012 43-769 limits assumed, chain 2 of 2): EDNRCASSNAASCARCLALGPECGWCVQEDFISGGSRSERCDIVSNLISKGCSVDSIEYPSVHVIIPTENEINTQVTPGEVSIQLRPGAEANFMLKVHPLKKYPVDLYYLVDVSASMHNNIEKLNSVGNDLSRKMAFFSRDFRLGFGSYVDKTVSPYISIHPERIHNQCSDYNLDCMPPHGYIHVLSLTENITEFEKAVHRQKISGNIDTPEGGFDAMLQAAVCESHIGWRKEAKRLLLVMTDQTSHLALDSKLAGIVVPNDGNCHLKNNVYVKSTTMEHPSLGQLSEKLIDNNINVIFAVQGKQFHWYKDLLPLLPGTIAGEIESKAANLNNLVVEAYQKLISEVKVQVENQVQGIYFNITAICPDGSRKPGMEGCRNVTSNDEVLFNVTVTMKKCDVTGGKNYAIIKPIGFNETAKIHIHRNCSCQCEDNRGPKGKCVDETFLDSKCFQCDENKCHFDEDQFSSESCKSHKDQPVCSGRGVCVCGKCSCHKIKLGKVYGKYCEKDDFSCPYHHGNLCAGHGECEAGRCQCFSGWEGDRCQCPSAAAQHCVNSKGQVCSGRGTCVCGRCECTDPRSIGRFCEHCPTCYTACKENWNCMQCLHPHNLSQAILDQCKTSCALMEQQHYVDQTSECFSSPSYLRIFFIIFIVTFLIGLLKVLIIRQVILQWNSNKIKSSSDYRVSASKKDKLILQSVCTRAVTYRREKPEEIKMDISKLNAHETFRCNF

B1: IgG clone 10404, hG1/hk (pSCSTa-hG1 (10404) heavy chain, pSCSTa-hK (10404) light chain) (antibody, V domains shown)
VH: EVQLVESGGGLVQPGGSLRLSCAASGFNLYSSSIHWVRQAPGKGLEWVAYIYPSYGYTSTYADSVKGRFTISADTSKNTAYLQMNSLRAEDTAVYYCARPAPYYSWYPAMDYWGQGTLVTVSS
VL: DIQMTQSPSSLSASVGDRVTITCRASQSVSSAVAWYQQKPGKAPKLLIYSASSLYSGVPSRFSGSRSGTDFTLTISSLQPEDFATYYCQQASGSPFTFGQGTKVEIKR
notes: Full-length human IgG1/kappa made in Expi293 cells
adhesion of integrin-αvβ1 CHO cells to LAP-TGFβ, normalised confluence, number over the bar, untreated = 100 [1]: 46.2% | Bmax [2]: 1.09 | IC50, inhibition of CHO cell adhesion to LAP-TGFβ [3]: 3.64 nM | IC50, inhibition of CHO cell adhesion to LAP-TGFβ [4]: < 1 nM | IC50, inhibition of CHO cell adhesion to LAP-TGFβ [5]: 13.2 nM | IC50, inhibition of CHO cell adhesion to LAP-TGFβ [6]: 23.8 nM | Bmax [7]: 1.09 | Kd [7]: 0.271 nM | EC50 [8]: 2.45 nM | EC50 [9]: 14.3 nM | EC50 [10]: 2.43 nM | EC50 [11]: 2.96 nM | EC50 [12]: 13.1 nM

B2: IgG 11867 (antibody, V domains shown)
VH: EVQLVESGGGLVQPGGSLRLSCAASGFDFDSYAIHWVRQAPGKGLEWVAYFYPGHDYSTYADSVKGRFTISADTSKNTAYLQMNSLRAEDTAVYYCARPSPYFSWHQAMDYWGQGTLVTVSS
VL: B1 VL with S92T, P95E, F96V
notes: also called 11867 hG1
EC50 [13]: 1.7 nM | EC50 [14]: 6.8 nM | EC50 [15]: 2.6 nM | EC50 [16]: 2.6 nM | EC50 [17]: 1.2 nM | IC50, inhibition of CHO cell adhesion to LAP-TGFβ [18]: 4.1 nM | IC50, inhibition of CHO cell adhesion to LAP-TGFβ [19]: 1.3 nM | IC50, inhibition of CHO cell adhesion to LAP-TGFβ [20]: 1.6 nM | IC50, inhibition of CHO cell adhesion to LAP-TGFβ [21]: 2.1 nM | IC50, inhibition of CHO cell adhesion to LAP-TGFβ [22]: 2.4 nM | EC50 [23]: 8.9 nM | IC50, inhibition of integrin-αvβ1 CHO cell adhesion to LAP-TGFβ (curves in FIG. 12L) [24]: 2.9 nM

B3: 10404/10392 (bispecific antibody, human IgG1, kappa)
heavy chain 10392, knob: EVQLVESGGGLVQPGGSLRLSCAASGFNIYYSSIHWVRQAPGKGLEWVASISSSSGSTSYADSVKGRFTISADTSKNTAYLQMNSLRAEDTAVYYCARSYYGGGYPYALDYWGQGTLVTVSSASTKGPSVFPLAPSSKSTSGGTAALGCLVKDYFPEPVTVSWNSGALTSGVHTFPAVLQSSGLYSLSSVVTVPSSSLGTQTYICNVNHKPSNTKVDKKVEPKSCDKTHTCPPCPAPELLGGPSVFLFPPKPKDTLMISRTPEVTCVVVDVSHEDPEVKFNWYVDGVEVHNAKTKPREEQYNSTYRVVSVLTVLHQDWLNGKEYKCKVSNKALPAPIEKTISKAKGQPREPMVFDLPPSREEMTKNQVSLWCMVKGFYPSDIAVEWESNGQPENNYKTTPPVLDSDGSFFLYSKLTVDKSRWQQGNVFSCSVMHEALHNHYTQKSLSLSPGK
heavy chain 10404, hole: EVQLVESGGGLVQPGGSLRLSCAASGFNLYSSSIHWVRQAPGKGLEWVAYIYPSYGYTSTYADSVKGRFTISADTSKNTAYLQMNSLRAEDTAVYYCARPAPYYSWYPAMDYWGQGTLVTVSSASTKGPSVFPLAPSSKSTSGGTAALGCLVKDYFPEPVTVSWNSGALTSGVHTFPAVLQSSGLYSLSSVVTVPSSSLGTQTYICNVNHKPSNTKVDKKVEPKSCDKTHTCPPCPAPELLGGPSVFLFPPKPKDTLMISRTPEVTCVVVDVSHEDPEVKFNWYVDGVEVHNAKTKPREEQYNSTYRVVSVLTVLHQDWLNGKEYKCKVSNKALPAPIEKTISKAKGQPREPQVYTLPPIRELMTSNQVSLSCAVKGFYPSDIAVEWESNGQPENNYKTTPPVLDSDGSFFLVSKLTVDKSRWQQGNVFSCSVMHEALHNHYTQKSLSLSPGK
light chain 10404: DIQMTQSPSSLSASVGDRVTITCRASQSVSSAVAWYQQKPGKAPKLLIYSASSLYSGVPSRFSGSRSGTDFTLTISSLQPEDFATYYCQQASGSPFTFGQGTKVEIKRTVAAPSVFIFPPSDEQLKSGTASVVCLLNNFYPREAKVQWKVDNALQSGNSQESVTEQDSKDSTYSLSSTLTLSKADYEKHKVYACEVTHQGLSSPVTKSFNRGEC
adhesion of integrin-αvβ1 CHO cells to LAP-TGFβ, normalised confluence, number over the bar, untreated = 100 [1]: 16.7% | IC50, inhibition of integrin-αvβ1 CHO cell adhesion to LAP-TGFβ; no antibody named on the panel, binder taken from the context of FIG. 10 [25]: 2.91 nM | IC50, inhibition of CHO cell adhesion to LAP-TGFβ [3]: 18.2 nM | IC50, inhibition of CHO cell adhesion to LAP-TGFβ [4]: 55.1 nM | IC50, inhibition of CHO cell adhesion to LAP-TGFβ [5]: 9.83 nM | IC50, inhibition of CHO cell adhesion to LAP-TGFβ [6]: 24.2 nM | EC50 [26]: 2.39 nM
